Experiment [1] has as its system mouse collagen-induced arthritis model. As to the kind of experiment: Mouse collagen-induced arthritis model. It is filed as in vivo. The conditions noted are these: day 42; 2 mg/mL, 200 μL per mouse intraperitoneally; compared to saline administrated group. As for the experimental part: The mouse collagen-induced arthritis model was prepared in the following manner according to the method of Kamada et al., (Kamada H. et al., Jpn. J. Pharmacol., 70, 169-175, 1996) using DBA/1J mice (male, 7 weeks old, Japan Charles River).
A bovine cartilage-derived type II collagen solution (manufactured by Collagen Gijutsu Kenshu) was mixed with a Freund's complete adjuvant (manufactured by Iatron) under ice cooling to form an emulsion which was adjusted such that the final concentration of the type II collagen became 1.5 mg/mL. The emulsion was intradermally injected in amount of 100 μL at the base of the tail of the mouse for sensitization. Twenty-one days later, the additional immunization was performed in the same manner. One group consisted of 10 mice. Anti-FGF-8 neutralizing antibody KM1334 was dissolved in a saline (manufactured by Otsuka Seiyaku Kojo) to a final concentration of 2 mg/mL, and the solution was intraperitoneally administered to a KM1334 administrated group at a dose of 200 μL for each mouse once a day on days 21, 25, 28, 32, 35 and 39 from the initial sensitization of the mouse collagen-induced arthritis model. […] The change with time of edemas of all limbs in collagen-induced arthritis was evaluated by the scoring from 0 to 4 in each limb to a total of 16 at the maximum score in all limbs. […]

The subject of experiment [2] is rat monoiodoacetic acid-induced osteoarthritis model. In words: Rat monoiodoacetic acid-induced osteoarthritis model. It is filed as in vivo. Conditions: 4 mg/mL, 0.5 mL per 100 g intraperitoneally once; 3 days after monoiodoacetic acid. The procedure:
The rat monoiodoacetic acid-induced osteoarthritis model was produced in the following manner by the method of Guingamp et al. (Guingamp C. et al., Arthritis Rheum., 40, 1670-1679, 1997) using Sprague-Dawley rats (male, 7 weeks old, Japan Charles River).
Monoiodoacetic acid (manufactured by Sigma-Aldrich) prepared with saline to a final concentration of 10 mg/mL was injected into the right knee joint of the rat in an amount of 25 μL. One group consisted of 10 rats. Anti-FGF-8 neutralizing antibody KM1334 was dissolved in saline (manufactured by Otsuka Seiyaku Kojo) to a final concentration of 4 mg/mL, and the antibody solution at a dose of 0.5 mL per 100 g of the body weight was intraperitoneally administered to a KM1334 administrated group once at the injection of monoiodoacetic acid. To saline group, the saline alone was intraperitoneally administered instead of the antibody solution. Further, a sham operated group was arranged, and the saline was injected in the knee joint thereof without the administration of the agent. After 3 days from the injection of monoiodoacetic acid, the joint washing liquid was recovered by the method described in Example 6. The amount of glycosaminoglycan in the joint lavage fluid was measured by the DMMB method described in Example 1.

B1: KM1334: anti-FGF-8 neutralizing monoclonal antibody produced by hybridoma KM1334 (FERM BP-5451), mouse IgG1 subclass (antibody, V domains shown)
VH: QVQLQQSGAEVARPGASVKLSCKASGYTFTDYYLNWVKQRSGQGLEWIGEIDPGSDSIYYNENLEGRATLTADKSSSTAYMQLNSLTSEDSAVYFCARYGYSRYDVRFVYWGQGTLVTVST
VL: DVLMTQTPLSLPVSLGDQASISCRSSQSLVHSNGRTYLEWYLQKPGQSPKVLIYKVSNRISGVPDRFSGSGSGTDFTLKISRVEAEDLGVYFCFQGSHVPYTFGGGTKLEIK
Regarding B1, the “inhibition of the arthritic score” value in experiment [1] came to 34%. For the same molecule, the “inhibition of the increase in concentration of glycosaminoglycan in the joint lavage fluid” value in experiment [2] turned out to be 42%.
